Values of other authors, collected in patent publication US20030103959A1, “Methods of providing neuroprotection and/or neurorestoration via the neural activin type IIB receptor” (priority 2001, published 2003).

System: quinolinic acid (QA) rat lesion model of Huntington's Disease
Settings: Hughes et al. 1999

B1: recombinant human (rh) activin-A: member of the TGF-β superfamily; 28 kDa disulphide-linked homodimer of two βA subunits (protein, UniProt P08476 311-426, looked up)
Inhibin beta A chain: GLECDGKVNICCKKQFFVSFKDIGWNDWIIAPSGYHANYCEGECPSHIAGTSGSSLSFHSTVINHYRMRGHSPFANLKSCCVPTKLRPMSMLYYDDGQNIIKKDIQNMIVEECGCS
For B1, the “neurotrophic effects after administration” value is given as “potent neurotrophic effects”.
